A short description of data set [1]: Zeta potential measurement. In kind it is physicochemical. To be noted: FIG. 11: SUVs of HSPC and DSG-PMPC.
The nature of data set [2]: Micelle formation in water by dynamic light scattering. In kind it is physicochemical. To be noted: 20 mg/ml in pure water (pH 5), one day.

As for “1,2-distearoyl-sn-glycerol-poly((O-(2-methacryloyloxyethyl) phosphorylcholine) [DSG-PMPC]”, in data set [1], the “net charge (zeta potential)” value is listed as “zero”.

For the substance “distearoylphosphatidylethanolamine-substituted poly(O-(2-methacryloyloxyethyl)phosphorylcholine) [DSPE-PMPC]”, in data set [2], the micelle formation entry is on record as “formed micelles”.

The values above are taken from patent US12116428B2, “Lipid analogs and liposomes comprising same” (Yeda Research and Development Co. Ltd., priority 2015, dated 2024).
